Results reported in patent US20140087995A1 (published 2014).
Each block holds one binder with its values, some of them ahead of it. Numbered stars: 1 amine (or outer) side, 2 acyl side, 3 side chain; on linkers, the order of the positions; unused ones are H or OH. Bridge positions count the residues as written; N and C are the ends. Side chains are listed from the residue outwards. Ends that are not written are not given here. * marks the point of attachment. C20 diacid = O=C(O)CCCCCCCCCCCCCCCCCCC(=O)*; γGlu = O=C(O)[C@H](CCC(=O)[*:2])N[*:1]

Assays:
rat calcitonin receptor [1] = molecular target: T1, rat calcitonin receptor (rat, UniProt P32214 25-516); experiment: ratio of binding IC50s: rat calcitonin receptor / rat amylin receptor (reference)
T1 construct: whole, on cells; Membranes prepared from transiently transfected BHK tk'ts 13 cells (Assay VIII); also called rCTR; rCT
T1 sequence (looked up): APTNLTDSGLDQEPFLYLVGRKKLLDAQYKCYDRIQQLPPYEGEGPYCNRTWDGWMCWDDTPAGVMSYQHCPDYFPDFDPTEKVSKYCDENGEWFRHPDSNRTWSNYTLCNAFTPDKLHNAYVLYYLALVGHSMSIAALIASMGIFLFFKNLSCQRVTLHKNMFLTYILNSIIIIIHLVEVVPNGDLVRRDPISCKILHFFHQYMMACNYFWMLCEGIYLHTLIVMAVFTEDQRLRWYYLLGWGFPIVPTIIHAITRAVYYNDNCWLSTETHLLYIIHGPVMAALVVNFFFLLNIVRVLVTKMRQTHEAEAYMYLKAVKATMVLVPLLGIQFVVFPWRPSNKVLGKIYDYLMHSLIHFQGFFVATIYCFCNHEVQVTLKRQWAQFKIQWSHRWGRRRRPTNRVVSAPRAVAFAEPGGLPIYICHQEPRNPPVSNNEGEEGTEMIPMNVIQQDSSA

[2] = molecular target: T2, human calcitonin receptor (human, UniProt P30988 25-474); experiment: ratio of binding IC50s: human calcitonin receptor / human amylin receptor (reference)
T2 construct: whole, on cells; Membranes prepared from a stably transfected BHK cell line (Assay VII); also called hCTR; hCT
T2 sequence (looked up): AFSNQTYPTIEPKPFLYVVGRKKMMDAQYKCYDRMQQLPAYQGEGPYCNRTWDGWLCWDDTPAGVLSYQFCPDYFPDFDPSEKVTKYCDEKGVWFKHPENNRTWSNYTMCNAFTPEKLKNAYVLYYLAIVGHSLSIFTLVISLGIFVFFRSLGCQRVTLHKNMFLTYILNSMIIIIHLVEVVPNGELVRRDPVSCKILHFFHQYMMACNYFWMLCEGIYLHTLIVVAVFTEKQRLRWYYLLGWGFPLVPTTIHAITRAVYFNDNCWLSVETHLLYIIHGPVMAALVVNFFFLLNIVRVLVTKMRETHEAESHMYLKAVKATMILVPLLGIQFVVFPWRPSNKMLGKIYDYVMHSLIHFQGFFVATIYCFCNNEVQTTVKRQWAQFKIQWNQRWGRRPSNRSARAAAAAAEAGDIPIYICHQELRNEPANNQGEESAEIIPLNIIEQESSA
Summary of the method: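 Scintillation proximity competition binding on cell membranes at 35 ng/μL with SPA beads, in 50 mM Hepes pH 7.4, 1 mM CaCl2, 5 mM MgCl₂, 0.1% OA, 0.02% Tween20. Incubated 120 min at 25° C with shaking. IC₅₀ from one-site competition fit.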

rat calcitonin receptor [3] = molecular target: T1, rat calcitonin receptor; experiment: SPA competition vs 125I-calcitonin, membranes of BHK cells with rat calcitonin receptor (Assay VIII)
[4] = molecular target: T3, rat amylin receptor (rat calcitonin receptor + rat RAMP 3) (rat, UniProt P32214 25-516; Q9JJ73 23-147); experiment: SPA competition vs 125I-rat amylin, membranes of BHK cells with rat calcitonin receptor + rat RAMP3 (Assay VI)
T3 construct: whole, on cells; Membranes prepared from transiently transfected BHK tk'ts 13 cells (Assay VI); also called rAmylin-R; rAmylin
T3 sequence (looked up) 1: T1 sequence (looked up)
T3 sequence (looked up) 2: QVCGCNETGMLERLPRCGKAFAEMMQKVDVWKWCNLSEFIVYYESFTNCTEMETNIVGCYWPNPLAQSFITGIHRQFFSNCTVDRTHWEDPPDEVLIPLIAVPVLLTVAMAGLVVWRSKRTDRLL

B2: N^ε1-[(4S)-4-carboxy-4-(19-carboxynonadecanoylamino)butanoyl]-[His14,Arg17,Pro21,Pro27,His34]-h-amylin (peptide)
peptide: K([γGlu-C20 diacid])CNTATCATQRLAHFLRHSSPNFGAIPSSTNVGHNTY-NH2
modifications: disulfide 2-7; N-terminus assumed
SMILES: CC[C@H](C)[C@H](NC(=O)[C@H](C)NC(=O)CNC(=O)[C@H](Cc1ccccc1)NC(=O)[C@H](CC(N)=O)NC(=O)[C@@H]1CCCN1C(=O)[C@H](CO)NC(=O)[C@H](CO)NC(=O)[C@H](Cc1c[nH]cn1)NC(=O)[C@H](CCCNC(=N)N)NC(=O)[C@H](CC(C)C)NC(=O)[C@H](Cc1ccccc1)NC(=O)[C@H](Cc1c[nH]cn1)NC(=O)[C@H](C)NC(=O)[C@H](CC(C)C)NC(=O)[C@H](CCCNC(=N)N)NC(=O)[C@H](CCC(N)=O)NC(=O)[C@@H](NC(=O)[C@H](C)NC(=O)[C@@H]1CSSC[C@H](NC(=O)[C@@H](N)CCCCNC(=O)CC[C@H](NC(=O)CCCCCCCCCCCCCCCCCCC(=O)O)C(=O)O)C(=O)N[C@@H](CC(N)=O)C(=O)N[C@@H]([C@@H](C)O)C(=O)N[C@@H](C)C(=O)N[C@@H]([C@@H](C)O)C(=O)N1)[C@@H](C)O)C(=O)N1CCC[C@H]1C(=O)N[C@@H](CO)C(=O)N[C@@H](CO)C(=O)N[C@H](C(=O)N[C@@H](CC(N)=O)C(=O)N[C@H](C(=O)NCC(=O)N[C@@H](Cc1c[nH]cn1)C(=O)N[C@@H](CC(N)=O)C(=O)N[C@H](C(=O)N[C@@H](Cc1ccc(O)cc1)C(N)=O)[C@@H](C)O)C(C)C)[C@@H](C)O
notes: Analogue of human amylin; also called compound 81
Ratio rCT/rAmylin binding (rat calcitonin receptor [1]): 42.9 | Ratio hCT/hAmylin binding [2]: 87.2 | IC50 (rat calcitonin receptor [3]): 61.1 nM | IC50 [4]: 1.42 nM

B3: N^ε1-[(4S)-4-carboxy-4-(19-carboxynonadecanoylamino)butanoyl]-[His14,Arg17,Pro21,Pro27,Arg34]-h-amylin (peptide)
peptide: K([γGlu-C20 diacid])CNTATCATQRLAHFLRHSSPNFGAIPSSTNVGRNTY-NH2
modifications: disulfide 2-7; N-terminus assumed
SMILES: CC[C@H](C)[C@H](NC(=O)[C@H](C)NC(=O)CNC(=O)[C@H](Cc1ccccc1)NC(=O)[C@H](CC(N)=O)NC(=O)[C@@H]1CCCN1C(=O)[C@H](CO)NC(=O)[C@H](CO)NC(=O)[C@H](Cc1c[nH]cn1)NC(=O)[C@H](CCCNC(=N)N)NC(=O)[C@H](CC(C)C)NC(=O)[C@H](Cc1ccccc1)NC(=O)[C@H](Cc1c[nH]cn1)NC(=O)[C@H](C)NC(=O)[C@H](CC(C)C)NC(=O)[C@H](CCCNC(=N)N)NC(=O)[C@H](CCC(N)=O)NC(=O)[C@@H](NC(=O)[C@H](C)NC(=O)[C@@H]1CSSC[C@H](NC(=O)[C@@H](N)CCCCNC(=O)CC[C@H](NC(=O)CCCCCCCCCCCCCCCCCCC(=O)O)C(=O)O)C(=O)N[C@@H](CC(N)=O)C(=O)N[C@@H]([C@@H](C)O)C(=O)N[C@@H](C)C(=O)N[C@@H]([C@@H](C)O)C(=O)N1)[C@@H](C)O)C(=O)N1CCC[C@H]1C(=O)N[C@@H](CO)C(=O)N[C@@H](CO)C(=O)N[C@H](C(=O)N[C@@H](CC(N)=O)C(=O)N[C@H](C(=O)NCC(=O)N[C@@H](CCCNC(=N)N)C(=O)N[C@@H](CC(N)=O)C(=O)N[C@H](C(=O)N[C@@H](Cc1ccc(O)cc1)C(N)=O)[C@@H](C)O)C(C)C)[C@@H](C)O
notes: Analogue of human amylin; also called compound 85
Ratio rCT/rAmylin binding (rat calcitonin receptor [1]): 46.5 | Ratio hCT/hAmylin binding [2]: 91.8 | IC50 (rat calcitonin receptor [3]): 146 nM | IC50 [4]: 3.14 nM

B4: N^ε1-[(4S)-4-carboxy-4-(19-carboxynonadecanoylamino)butanoyl]-[Arg17,Pro21,Pro27,His34]-h-amylin (peptide)
peptide: K([γGlu-C20 diacid])CNTATCATQRLANFLRHSSPNFGAIPSSTNVGHNTY-NH2
modifications: disulfide 2-7; N-terminus assumed
SMILES: CC[C@H](C)[C@H](NC(=O)[C@H](C)NC(=O)CNC(=O)[C@H](Cc1ccccc1)NC(=O)[C@H](CC(N)=O)NC(=O)[C@@H]1CCCN1C(=O)[C@H](CO)NC(=O)[C@H](CO)NC(=O)[C@H](Cc1c[nH]cn1)NC(=O)[C@H](CCCNC(=N)N)NC(=O)[C@H](CC(C)C)NC(=O)[C@H](Cc1ccccc1)NC(=O)[C@H](CC(N)=O)NC(=O)[C@H](C)NC(=O)[C@H](CC(C)C)NC(=O)[C@H](CCCNC(=N)N)NC(=O)[C@H](CCC(N)=O)NC(=O)[C@@H](NC(=O)[C@H](C)NC(=O)[C@@H]1CSSC[C@H](NC(=O)[C@@H](N)CCCCNC(=O)CC[C@H](NC(=O)CCCCCCCCCCCCCCCCCCC(=O)O)C(=O)O)C(=O)N[C@@H](CC(N)=O)C(=O)N[C@@H]([C@@H](C)O)C(=O)N[C@@H](C)C(=O)N[C@@H]([C@@H](C)O)C(=O)N1)[C@@H](C)O)C(=O)N1CCC[C@H]1C(=O)N[C@@H](CO)C(=O)N[C@@H](CO)C(=O)N[C@H](C(=O)N[C@@H](CC(N)=O)C(=O)N[C@H](C(=O)NCC(=O)N[C@@H](Cc1c[nH]cn1)C(=O)N[C@@H](CC(N)=O)C(=O)N[C@H](C(=O)N[C@@H](Cc1ccc(O)cc1)C(N)=O)[C@@H](C)O)C(C)C)[C@@H](C)O
notes: Analogue of human amylin; also called compound 77
Ratio rCT/rAmylin binding (rat calcitonin receptor [1]): 137 | Ratio hCT/hAmylin binding [2]: 118 | IC50 (rat calcitonin receptor [3]): 205 nM | IC50 [4]: 1.5 nM

Now those with a lower IC50 (rat calcitonin receptor [3]), led by results:

Ratio rCT/rAmylin binding (rat calcitonin receptor [1]): 21.5 | Ratio hCT/hAmylin binding [2]: 46.1 | IC50 (rat calcitonin receptor [3]): 35.5 nM | IC50 [4]: 1.65 nM
B1: N^ε1-[(4S)-4-carboxy-4-(19-carboxynonadecanoylamino)butanoyl]-[Arg17,Pro21,Pro27,Arg34]-h-amylin (peptide)
peptide: K([γGlu-C20 diacid])CNTATCATQRLANFLRHSSPNFGAIPSSTNVGRNTY-NH2
modifications: disulfide 2-7; N-terminus assumed
SMILES: CC[C@H](C)[C@H](NC(=O)[C@H](C)NC(=O)CNC(=O)[C@H](Cc1ccccc1)NC(=O)[C@H](CC(N)=O)NC(=O)[C@@H]1CCCN1C(=O)[C@H](CO)NC(=O)[C@H](CO)NC(=O)[C@H](Cc1c[nH]cn1)NC(=O)[C@H](CCCNC(=N)N)NC(=O)[C@H](CC(C)C)NC(=O)[C@H](Cc1ccccc1)NC(=O)[C@H](CC(N)=O)NC(=O)[C@H](C)NC(=O)[C@H](CC(C)C)NC(=O)[C@H](CCCNC(=N)N)NC(=O)[C@H](CCC(N)=O)NC(=O)[C@@H](NC(=O)[C@H](C)NC(=O)[C@@H]1CSSC[C@H](NC(=O)[C@@H](N)CCCCNC(=O)CC[C@H](NC(=O)CCCCCCCCCCCCCCCCCCC(=O)O)C(=O)O)C(=O)N[C@@H](CC(N)=O)C(=O)N[C@@H]([C@@H](C)O)C(=O)N[C@@H](C)C(=O)N[C@@H]([C@@H](C)O)C(=O)N1)[C@@H](C)O)C(=O)N1CCC[C@H]1C(=O)N[C@@H](CO)C(=O)N[C@@H](CO)C(=O)N[C@H](C(=O)N[C@@H](CC(N)=O)C(=O)N[C@H](C(=O)NCC(=O)N[C@@H](CCCNC(=N)N)C(=O)N[C@@H](CC(N)=O)C(=O)N[C@H](C(=O)N[C@@H](Cc1ccc(O)cc1)C(N)=O)[C@@H](C)O)C(C)C)[C@@H](C)O
notes: Analogue of human amylin; also called compound 79

Ratio rCT/rAmylin binding (rat calcitonin receptor [1]): 122 | Ratio hCT/hAmylin binding [2]: 45.2 | IC50 (rat calcitonin receptor [3]): 26.3 nM | IC50 [4]: 0.215 nM
B5: N^ε1-[(4S)-4-carboxy-4-(19-carboxynonadecanoylamino)butanoyl]-[Arg17,Pro21,Pro27,His35]-h-amylin (peptide)
peptide: K([γGlu-C20 diacid])CNTATCATQRLANFLRHSSPNFGAIPSSTNVGSHTY-NH2
modifications: disulfide 2-7; N-terminus assumed
SMILES: CC[C@H](C)[C@H](NC(=O)[C@H](C)NC(=O)CNC(=O)[C@H](Cc1ccccc1)NC(=O)[C@H](CC(N)=O)NC(=O)[C@@H]1CCCN1C(=O)[C@H](CO)NC(=O)[C@H](CO)NC(=O)[C@H](Cc1c[nH]cn1)NC(=O)[C@H](CCCNC(=N)N)NC(=O)[C@H](CC(C)C)NC(=O)[C@H](Cc1ccccc1)NC(=O)[C@H](CC(N)=O)NC(=O)[C@H](C)NC(=O)[C@H](CC(C)C)NC(=O)[C@H](CCCNC(=N)N)NC(=O)[C@H](CCC(N)=O)NC(=O)[C@@H](NC(=O)[C@H](C)NC(=O)[C@@H]1CSSC[C@H](NC(=O)[C@@H](N)CCCCNC(=O)CC[C@H](NC(=O)CCCCCCCCCCCCCCCCCCC(=O)O)C(=O)O)C(=O)N[C@@H](CC(N)=O)C(=O)N[C@@H]([C@@H](C)O)C(=O)N[C@@H](C)C(=O)N[C@@H]([C@@H](C)O)C(=O)N1)[C@@H](C)O)C(=O)N1CCC[C@H]1C(=O)N[C@@H](CO)C(=O)N[C@@H](CO)C(=O)N[C@H](C(=O)N[C@@H](CC(N)=O)C(=O)N[C@H](C(=O)NCC(=O)N[C@@H](CO)C(=O)N[C@@H](Cc1c[nH]cn1)C(=O)N[C@H](C(=O)N[C@@H](Cc1ccc(O)cc1)C(N)=O)[C@@H](C)O)C(C)C)[C@@H](C)O
notes: Analogue of human amylin; also called compound 60
